Measured values: article PMC11602133
Where “and” joins values, the source holds several entries; their conditions need not be identical. Equal entries are not always repeated.

Legend:
[1] = target: AGAMOUS (AG), in vitro produced (Arabidopsis) (UniProt P17839); assay: native gel or EMSA; in vitro produced proteins (wheat germ TnT) mixed with a DY-682 labelled ~100 bp DNA probe containing a CArG-box (SAUR10 probe); protein complexes read from the shifted bands on DNA; anti-FLAG antibody added for supershift where FUL-FLAG was used
[2] = target: SUPPRESSOR OF OVEREXPRESSION OF CONSTANS 1 (SOC1), in vitro produced (Arabidopsis) (UniProt O64645); assay: as above

Sequence of UniProt O64645 (O64645 whole entry): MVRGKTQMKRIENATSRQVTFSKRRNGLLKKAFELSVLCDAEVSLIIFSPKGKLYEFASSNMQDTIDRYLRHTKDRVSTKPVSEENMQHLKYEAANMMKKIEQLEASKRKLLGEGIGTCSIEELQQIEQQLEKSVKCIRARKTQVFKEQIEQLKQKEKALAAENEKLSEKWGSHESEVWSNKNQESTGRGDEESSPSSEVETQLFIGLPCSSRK
Sequence of AGAMOUS (AG), in vitro produced, P17839 1-252 (natural protein; other documents disagree on this pair) (P17839 whole entry): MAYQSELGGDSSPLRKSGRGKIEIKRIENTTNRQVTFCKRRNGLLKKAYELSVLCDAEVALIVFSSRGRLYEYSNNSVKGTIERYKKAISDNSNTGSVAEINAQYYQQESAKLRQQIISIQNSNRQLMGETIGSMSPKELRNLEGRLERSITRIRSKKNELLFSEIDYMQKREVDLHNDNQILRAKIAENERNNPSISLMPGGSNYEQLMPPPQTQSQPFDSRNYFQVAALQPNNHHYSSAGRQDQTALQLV

Row | stoichiometry N [1] | stoichiometry N [2] | Substance
1 | 2 | – | AGAMOUS (AG), in vitro produced, P17839 1-252 (natural protein; other documents disagree on this pair)
2 | – | 2 and 4 | SUPPRESSOR OF OVEREXPRESSION OF CONSTANS 1 (SOC1), in vitro produced (from UniProt O64645 1-214) (natural protein)
